# Data taken from patent US9074018B2, “Reconstituted pulmonary surfactants” (CHIESI FARMACEUTICI S.p.A, priority 2012, dated 2015).
# Assay: Viscosity of the surfactant preparation
# Assay type: physicochemical
# Details: mixed with a phospholipid mixture consisting of DPPC:POPG 7:3 (w/w)
# From the text: Advantageously the viscosity of said formulations is less than 20 centiPoise (cP), preferably less than 15 cP, upon determination with a common viscometer available on the market according to methods known in the art.
sequence,measurement,value
"CWLCRALIKRFNRYLTPQLVCRLVLRC [ox Mini-B27, SP-B analogue of formula (III), shorter analogue of ox Mini-B(Leu)]",viscosity of the preparation,viscous
